Experimental data taken from publication PMC11602160, “Modulation of UPF1 catalytic activity upon interaction of SARS-CoV-2 Nucleocapsid protein with factors involved in nonsense mediated-mRNA decay” (Nucleic Acids Research, 2024).

Target: T1, full-length GST-tagged SARS-CoV-2 Nucleocapsid (N) protein (SARS-CoV-2, UniProt P0DTC9 1-419)
T1 construct: SARS-CoV-2 Nucleocapsid (N) protein, full length; also called GST-N
Test: pull-down
Conditions: both partners purified

B1: UPF2 truncated construct lacking 120 and 45 residues at the N- and C-termini (domain or fragment, human, UniProt Q9HAU5 121-1227, looked up)
chain: MKEKEESIQLHQEAWERHHLRKELRSKNQNAPDSRPEENFFSRLDSSLKKNTAFVKKLKTITEQQRDSLSHDFNGLNLSKYIAEAVASIVEAKLKISDVNCAVHLCSLFHQRYADFAPSLLQVWKKHFEARKEEKTPNITKLRTDLRFIAELTIVGIFTDKEGLSLIYEQLKNIINADRESHTHVSVVISFCRHCGDDIAGLVPRKVKSAAEKFNLSFPPSEIISPEKQQPFQNLLKEYFTSLTKHLKRDHRELQNTERQNRRILHSKGELSEDRHKQYEEFAMSYQKLLANSQSLADLLDENMPDLPQDKPTPEEHGPGIDIFTPGKPGEYDLEGGIWEDEDARNFYENLIDLKAFVPAILFKDNEKSCQNKESNKDDTKEAKESKENKEVSSPDDLELELENLEINDDTLELEGGDEAEDLTKKLLDEQEQEDEEASTGSHLKLIVDAFLQQLPNCVNRDLIDKAAMDFCMNMNTKANRKKLVRALFIVPRQRLDLLPFYARLVATLHPCMSDVAEDLCSMLRGDFRFHVRKKDQINIETKNKTVRFIGELTKFKMFTKNDTLHCLKMLLSDFSHHHIEMACTLLETCGRFLFRSPESHLRTSVLLEQMMRKKQAMHLDARYVTMVENAYYYCNPPPAEKTVKKKRPPLQEYVRKLLYKDLSKVTTEKVLRQMRKLPWQDQEVKDYVICCMINIWNVKYNSIHCVANLLAGLVLYQEDVGIHVVDGVLEDIRLGMEVNQPKFNQRRISSAKFLGELYNYRMVESAVIFRTLYSFTSFGVNPDGSPSSLDPPEHLFRIRLVCTILDTCGQYFDRGSSKRKLDCFLVYFQRYVWWKKSLEVWTKDHPFPIDIDYMISDTLELLRPKIKLCNSLEESIRQVQDLEREFLIKLGLVNDKDSKDSMTEGENLEEDEEEEEGGAETEEQSGNESEVNEPEEEEGSDNDDDEGEEEEEENTDYLTDSNKENETDEENTEVMIKGGGLKHVPCVEDEDFIQALDKMMLENLQQRSGESVKVHQLDVAIPLHLKSQLRKGPPLGGGEGEAESADTMPFVMLTRKGNKQQFKILNVPMSSQLAANHWNQQQAEQEERMRMKKLTLDINERQEQED
notes: human UPF2 lacking 120 residues at the N-terminus and 45 residues at the C-terminus
B1: binds.
